Results: PMC4248446

Biological target: receptor for advanced glycation end products (RAGE) (human (endogenous in HPAEC)) (UniProt Q15109)
Chain of UniProt Q15109 (Q15109 23-404): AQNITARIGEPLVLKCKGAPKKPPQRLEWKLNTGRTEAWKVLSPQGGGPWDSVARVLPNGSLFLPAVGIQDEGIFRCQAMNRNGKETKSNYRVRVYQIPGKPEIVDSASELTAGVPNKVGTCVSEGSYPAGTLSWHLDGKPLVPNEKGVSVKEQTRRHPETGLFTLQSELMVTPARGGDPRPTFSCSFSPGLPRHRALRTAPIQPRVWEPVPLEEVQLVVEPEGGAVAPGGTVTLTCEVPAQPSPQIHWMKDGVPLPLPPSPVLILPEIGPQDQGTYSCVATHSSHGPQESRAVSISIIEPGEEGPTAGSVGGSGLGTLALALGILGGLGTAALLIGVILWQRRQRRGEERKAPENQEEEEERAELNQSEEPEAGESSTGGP

ET-1 release from HPAECs induced by HMGB1 (40 ng/ml), ELISA of the culture supernatant, with anti-RAGE antibody (ab3611; Abcam; 1 μg/ml) co-treated: 349 pg/mL
Substance: recombinant high mobility group box-1 (HMGB1) (from UniProt P09429 1-215) (ligand)
